Consider one substance from US20120034231A1.

Assay [1] deals with cynomolgus IL12Rβ1 (cynomolgus). In words: FACS on Baf3 cells transfected with cyno IL12Rβ1, mouse control mAb.
The target of another assay is human IL12Rβ1 (human) (UniProt P42701). In words: FACS on Baf3 cells transfected with human IL12Rβ1, mouse control mAb.

In general, EC50 refers to the midpoint of the concentration-response curve. On to “Mab839 (mouse monoclonal anti-human IL12Rβ1 control antibody, R&D Systems, Cat# MAB839)”, for which the figures for the EC50 (in assay [1]; in the assay with human IL12Rβ1 (human)) were 1.47 nM and 2.35 nM, respectively.
